B1: PPO12B: nucleotide sequence encoding protoporphyrinogen oxidase PPO12, maize common codon usage bias (nucleic acid)
DNA: ATGAAGAAGGCGCTGTTTTTATATTCAAGTCGTGAGGGCCAAACAAAAAAAATATTGAACTACATTGAAGGTGAATTGTCCAATTTTGAGTGCGAGCTCGTCGACCTCCACACGCTGGACGCCATTGATTTCTCGGTCTATGACAGGGTTTTGATTGGAGCAAGCATACGGTACGGCCACCTAAACAAGAAACTTTATCAATTCATTGAGAATAACCGCCAGCAGCTGGAAAATCATACCAAGGTGGCCTTCTTCTGTGTAAATCTTACTGCAAGGAAGGAAGATCAAGGCAAGGACACCCCTGAAGGGAGCGTCTACATCCAGAAGTTCCTGAAAAAATCTCCCTGGCAGCCAAAACTTATCGGGGTGTTCGCTGGCGCGCTCTACTACCCGAGATATGGTTTTTTTGACAAGATGATGATCAAGCTCATCATGACGCTGACAGATGGAGAGACTGATACTACAAAGGAGGTGGAGTACACCAACTGGAAGAAAGTTTCCCTCTTCGCCAAGAAGTTTGCTGAGCTTTGA
modifications: The nucleotide sequence of PPO12B
B2: PPO6B: nucleotide sequence encoding protoporphyrinogen oxidase PPO6, maize common codon usage bias (nucleic acid)
DNA: ATGTCAAGTCCCAACGGGAAGTACCTTATGCTGTATAGCACGACTGATGGACACACCAAGACAATAATGGACACCATGGCGAAGCACATTATGGAAGAGGCCAAAGTTCAGTGCGACGTCGTAGACATGAGGGACGGGGACAAGTATGAACTTGCGGCTTACGAGAAGGTCATGCTCGGCGCCTCCATAAGGTACGGCTTCTTCAGCCGCACCTTGCATACATATACTACCCATCATGTTGATGAGCTTAACTCCATGCCATCGGCATTCTTTGGTGTTAATTTAACGGCGCGGAAAACTAGCAAGAACACAGCCATGACCAATGCTTATACACGGAAATTCCTGGATCAATCTATGTGGGTGCCACAGCTGAGTGGGGTCTTCGCCGGTGCACTCTGGTACCCCCGCTACAACTTTTTTGATCGAGTGATGATCCAGTTCATCATGAAGGTGACGGGCGGCGAAACAAATACTACAAAAGAGATCGTCTACACGGACTGGGATGCAGTGCACAAGTTTGCTACTGACTTCGTCCAACTCCCTGCCACCGCCATTCCAAGATCTAAACCTGCTACGTCGGTGCCGCCGGCGTCAGTAGCAAACTATGATAATGGTGCTCGTGTTGCGCTGGTGGTGGTTGGAATTTCTGCAGCCATCATCTTCGGCCGCAGGCTAATTTTGGCCAAGAGATTTTGA
modifications: The nucleotide sequence of PPO6B

Tests used:
Assay type in all cases: in vivo
transgenic maize plants [1] = assay: saflufenacil tolerance of transgenic maize plants (spray, grade of pesticide damage); details: for tolerance to saflufenacil: maize; for The grade of pesticide damage/plant: number of plants of grade 0 / The grade of pesticide damage/plant: number of plants of grade 1 / The grade of pesticide damage/plant: number of plants of grade 2 / The grade of pesticide damage/plant: number of plants of grade 3: 7 DAT, 16 maize plants per genotype
transgenic maize plants [2] = assay: oxyfluorfen tolerance of transgenic maize plants (spray, grade of pesticide damage); details: for tolerance to oxyfluorfen: maize; for The grade of pesticide damage/plant: number of plants of grade 0 / The grade of pesticide damage/plant: number of plants of grade 1 / The grade of pesticide damage/plant: number of plants of grade 2 / The grade of pesticide damage/plant: number of plants of grade 3: 7 DAT, 16 maize plants per genotype
transgenic maize plants [3] = assay: flumioxazin tolerance of transgenic maize plants (spray, grade of pesticide damage); details: for The grade of pesticide damage/plant: number of plants of grade 0 / The grade of pesticide damage/plant: number of plants of grade 1 / The grade of pesticide damage/plant: number of plants of grade 2 / The grade of pesticide damage/plant: number of plants of grade 3: 7 DAT, 16 maize plants per genotype; for tolerance to flumioxazin: maize, flumioxazin at different concentrations (120 and 240 g ai/ha)
[4] = saflufenacil at four-fold field concentration (100 g ai/ha)
[5] = saflufenacil at two-fold field concentration (50 g ai/ha)
[6] = saflufenacil 50 g ai/ha (2x field concentration)
[7] = saflufenacil 100 g ai/ha (4x field concentration)
[8] = oxyfluorfen at four-fold field concentration (720 g ai/ha)
[9] = oxyfluorfen at two-fold field concentration (360 g ai/ha)
[10] = oxyfluorfen 360 g ai/ha (2x field concentration)
[11] = oxyfluorfen 720 g ai/ha (4x field concentration)
[12] = flumioxazin 120 g ai/ha (2x field concentration)
[13] = flumioxazin 240 g ai/ha (4x field concentration)

| Molecule | tolerance to saflufenacil (transgenic maize plants [1]; [4]) | tolerance to saflufenacil (transgenic maize plants [1]; [5]) | The grade of pesticide damage/plant: number of plants of grade 0 (transgenic maize plants [1]; [6]) | The grade of pesticide damage/plant: number of plants of grade 1 (transgenic maize plants [1]; [6]) | The grade of pesticide damage/plant: number of plants of grade 2 (transgenic maize plants [1]; [6]) | The grade of pesticide damage/plant: number of plants of grade 3 (transgenic maize plants [1]; [6]) | The grade of pesticide damage/plant: number of plants of grade 0 (transgenic maize plants [1]; [7]) | The grade of pesticide damage/plant: number of plants of grade 1 (transgenic maize plants [1]; [7]) | The grade of pesticide damage/plant: number of plants of grade 2 (transgenic maize plants [1]; [7]) | The grade of pesticide damage/plant: number of plants of grade 3 (transgenic maize plants [1]; [7]) | tolerance to oxyfluorfen (transgenic maize plants [2]; [8]) | tolerance to oxyfluorfen (transgenic maize plants [2]; [9]) | The grade of pesticide damage/plant: number of plants of grade 0 (transgenic maize plants [2]; [10]) | The grade of pesticide damage/plant: number of plants of grade 1 (transgenic maize plants [2]; [10]) | The grade of pesticide damage/plant: number of plants of grade 2 (transgenic maize plants [2]; [10]) | The grade of pesticide damage/plant: number of plants of grade 3 (transgenic maize plants [2]; [10]) | The grade of pesticide damage/plant: number of plants of grade 0 (transgenic maize plants [2]; [11]) | The grade of pesticide damage/plant: number of plants of grade 1 (transgenic maize plants [2]; [11]) | The grade of pesticide damage/plant: number of plants of grade 2 (transgenic maize plants [2]; [11]) | The grade of pesticide damage/plant: number of plants of grade 3 (transgenic maize plants [2]; [11]) | also measured |
| --- | --- | --- | --- | --- | --- | --- | --- | --- | --- | --- | --- | --- | --- | --- | --- | --- | --- | --- | --- | --- | --- |
| B1 | high-resistant tolerance | high-resistant tolerance | 16 | 0 | 0 | 0 | 16 | 0 | 0 | 0 | high-resistant tolerance | high-resistant tolerance | 16 | 0 | 0 | 0 | 16 | 0 | 0 | 0 | The grade of pesticide damage/plant: number of plants of grade 0 (transgenic maize plants [3]; [12]): 16; The grade of pesticide damage/plant: number of plants of grade 1 (transgenic maize plants [3]; [12]): 0; The grade of pesticide damage/plant: number of plants of grade 2 (transgenic maize plants [3]; [12]): 0; The grade of pesticide damage/plant: number of plants of grade 3 (transgenic maize plants [3]; [12]): 0; The grade of pesticide damage/plant: number of plants of grade 0 (transgenic maize plants [3]; [13]): 16; The grade of pesticide damage/plant: number of plants of grade 1 (transgenic maize plants [3]; [13]): 0; The grade of pesticide damage/plant: number of plants of grade 2 (transgenic maize plants [3]; [13]): 0; The grade of pesticide damage/plant: number of plants of grade 3 (transgenic maize plants [3]; [13]): 0; tolerance to flumioxazin (transgenic maize plants [3]): high-resistant tolerance |
| B2 | high-resistant tolerance | high-resistant tolerance | 16 | 0 | 0 | 0 | 16 | 0 | 0 | 0 | high-resistant tolerance | high-resistant tolerance | 16 | 0 | 0 | 0 | 16 | 0 | 0 | 0 | The grade of pesticide damage/plant: number of plants of grade 0 (transgenic maize plants [3]; [12]): 16; The grade of pesticide damage/plant: number of plants of grade 1 (transgenic maize plants [3]; [12]): 0; The grade of pesticide damage/plant: number of plants of grade 2 (transgenic maize plants [3]; [12]): 0; The grade of pesticide damage/plant: number of plants of grade 3 (transgenic maize plants [3]; [12]): 0; The grade of pesticide damage/plant: number of plants of grade 0 (transgenic maize plants [3]; [13]): 16; The grade of pesticide damage/plant: number of plants of grade 1 (transgenic maize plants [3]; [13]): 0; The grade of pesticide damage/plant: number of plants of grade 2 (transgenic maize plants [3]; [13]): 0; The grade of pesticide damage/plant: number of plants of grade 3 (transgenic maize plants [3]; [13]): 0; tolerance to flumioxazin (transgenic maize plants [3]): high-resistant tolerance |
